# Results as given in US20090311257A1 (XOMA TECHNOLOGY, published 2009).
# Changes are numbered by the printed parent chain. Where no end group is shown, it is not given here.
# B1: human gastrin (h-G17) (ligand, UniProt P01350 76-92, looked up)
# peptide: QGPWLEEEEEAYGWMDF
# B2: XPA061 (phage display-derived antibody fragment) (antibody, V domains shown)
# VH: QVQLVQSGAEVKKPGSSVKVSCKISGGTFSSHAIGWVRQAPGQGLEWIGRIIPSLDLDNSAPKFQDRVTITADKFTNTAYMELRNLRPEDTAFYYCTGDPLYNWTGAHWGRGTMVTVSS
# VL: QAVLTQPSSLSASPGASASLTCTLRSDINVGTYRIYWYQQKSGSPPQYLLRYRSDSDKQQGSGVPSRFSGSKDASANAGILLISGLQSEDEADYYCMIWHSSAWVFGGGTKVTVL
# B3: XPA063 (phage display-derived antibody fragment) (antibody, V domains shown)
# VH: EVQLVQSGAEVKKPGSSVTVSCKASGGTFDKYAIGWVRQAPGQGLEWMGRIIPSLDLDNSAQKFQDRVTITADKFTTTVYMKLSNLRPEDTAMYYCTRDPLYNWSGSYWGRGTMVTVSS
# VL: B2 VL with D27G, S42P, R53K, V112L
# B4: XPA061 reformatted whole human IgG (antibody, V domains shown)
# VH: B2 VH
# VL: B2 VL
# B5: XPA067 (parental antibody fragment) (antibody, V domains shown)
# VH: B3 VH with S54T, D58A, K82E, S84T
# VL: B2 VL with D27G, S42P, R53K, V112L
# notes: also called parental (XPA067)
# B6: XPA067 reformatted whole human IgG (antibody, V domains shown)
# VH: B3 VH with S54T, D58A, K82E, S84T
# VL: B2 VL with D27G, S42P, R53K, V112L
# notes: also called parent antibody XPA067; parental a-gastrin mAb
# B7: a monoclonal antibody with affinity of about 10^-9 M (anti-gastrin, not named in the sentence) (antibody, V domains shown)
# VH: B3 VH with S54T, D58A, K82E, S84T
# VL: B2 VL with D27G, S42P, R53K, V112L
# B8: XPA081 (phage display-derived antibody fragment) (antibody, V domains shown)
# VH: B3 VH with M93I, N103Q, R111K, M114L
# VL: B2 VL with S42P, R53K, E89G, E91G, V112L
# B9: XPA065 (phage display-derived antibody fragment) (antibody, V domains shown)
# VH: B3 VH with S54T, D58A, K82E, S84T
# VL: QAVLTQPSSLSASPGTSASLTCTLRSGINVGSYRIYWYQQRPGSPPQYLLRYKSDSDKQQGSGVPSRFSGSKDASANAGVLFISGLQSDDEADYYCMIWHNSAWVFGGGTKLTVL
# Assays:
# [1] = molecular target: T1, CCK2R on the CCK2R overexpressing cell line AGS-TR (UniProt P32239 1-447, limits assumed); test: cell-based or functional assay
# T1 sequence (looked up): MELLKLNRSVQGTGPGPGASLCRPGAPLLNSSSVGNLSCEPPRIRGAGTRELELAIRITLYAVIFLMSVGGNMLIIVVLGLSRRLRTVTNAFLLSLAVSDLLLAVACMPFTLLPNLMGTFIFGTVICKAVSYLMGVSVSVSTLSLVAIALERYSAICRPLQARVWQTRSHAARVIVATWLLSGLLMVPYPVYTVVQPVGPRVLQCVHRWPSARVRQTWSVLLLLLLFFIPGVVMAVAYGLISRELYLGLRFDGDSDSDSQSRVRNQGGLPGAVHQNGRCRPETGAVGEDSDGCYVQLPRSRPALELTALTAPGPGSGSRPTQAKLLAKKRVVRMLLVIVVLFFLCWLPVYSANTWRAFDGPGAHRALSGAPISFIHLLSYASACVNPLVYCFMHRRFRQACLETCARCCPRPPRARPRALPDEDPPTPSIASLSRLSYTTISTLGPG
# [2] = molecular target: B1; test: cell-based or functional assay
# [3] = molecular target: B1; test: cell-based or functional assay
# [4] = molecular target: B1; test: KD measurement of reformatted IgG; method and antigen form not stated in the example
# [5] = molecular target: T2, biotinylated 10 amino acid peptide from the N terminal portion of Gastrin 17 (human, UniProt P01350 76-85, limits assumed, ends and bridges not checked); test: SPR (BIACORE 2000), antibody over low-density biotinylated peptide on streptavidin chip; from kinetic rate constants; parental fragment, Table 3 comparator to the matured fragments
# T2 construct: domain: 10 amino acid peptide from the N terminal portion of Gastrin 17; Panning target; also called biotinylated peptide; biotinylated peptides
# T2 peptide (looked up): QGPWLEEEEE-biotin
# Procedure: (§1) Affinities of the parental (XPA067) and matured antibody fragments were determined by surface plasmon resonance using a BIACORE® 2000. Affinity constants were calculated from the kinetic rate constants for antibody binding to biotinylated peptide immobilized on a Streptavidin sensor chip.
# (§2) A very low density of peptide was immobilized in order to avoid bivalent binding by the antibodies to the sensor chip. Antibodies were tested in triplicate at six concentrations of three-fold serial dilutions. Data were analyzed using BiaEval Software.
# [6] = molecular target: T2, biotinylated 10 amino acid peptide from …; test: SPR, measured as described previously (BIACORE, biotinylated peptide on streptavidin chip); reformatted IgG
# Procedure: as §1, §2
# Antibody affinity was measured as described previously.
# [7] = molecular target: B1; test: KD measurement of reformatted IgG; method and antigen form not stated in the example; reformatted IgG, Table 2 lead selection
# [8] = molecular target: B1; test: summary sentence of the filing's own data; method not given; antibody not named
Binder,Ca flux neutralization at 2x molar excess [2] [%],Ca flux neutralization at roughly 100 fold molar excess over gastrin (1 nM) [2] [%],other results
B1,–,–,calcium flux EC50 (AGS-TR cells) [1]: 1 nM
B2,~70,~80,–
B3,< 20,> 70,–
B4,–,–,Ca Flux IC50 [3]: 1.34 nM; pERK IC50 (nM) [3]: 0.42 nM; Kd [4]: 9.9 nM
B5,< 20,~80,Kd [5]: ~5 nM
B6,–,–,Kd [6]: ~5 nM; Ca Flux IC50 [3]: 0.76 nM; pERK IC50 (nM) [3]: 0.56 nM; Kd [7]: 3.9 nM
B7,–,–,Kd [8]: ~1 nM
B8,< 20,~80,–
B9,< 20,~80,–
